Experimental data as given in ChEMBL document CHEMBL4680222, “Sensitive fluorogenic substrates for sirtuin deacylase inhibitor discovery” (Eur J Med Chem, 2020).

Legend:
[1] = compound: CC(=O)NCCCC[C@H](NC(=O)[C@H](CC(C)C)NC(=O)[C@H](CCCCN)NC(=O)[C@H](Cc1ccc(O)cc1)NC(C)=O)C(=O)Nc1ccc2c(C)cc(=O)oc2c1; assay: (§1) Substrate activity at human N-terminal His-tagged SIRT3 (122 to 391 residues) expressed in Escherichia coli assessed as Km measured after 1 hr in presence of NAD+ and trypsin by Michaelis-Menten kinetic model based fluorescence assay
[2] = compound: CC[C@H](C)[C@H](NC(=O)[C@H](CC(C)C)NC(=O)[C@H](CCCNC(=N)N)NC(C)=O)C(=O)N[C@@H](CCCCNC(C)=O)C(=O)Nc1ccc2c(C)cc(=O)oc2c1; assay: as §1
[3] = compound: CC(=O)NCCCC[C@H](NC(=O)[C@H](CC(C)C)NC(=O)[C@H](CCCCN)NC(=O)[C@H](Cc1ccc(O)cc1)NC(C)=O)C(=O)Nc1ccc2c(C)cc(=O)oc2c1; assay: (§2) Substrate activity at human N-terminal His-tagged SIRT3 (122 to 391 residues) expressed in Escherichia coli assessed as ratio of Kcat to Km measured after 1 hr in presence of NAD+ and trypsin by Michaelis-Menten kinetic model based fluorescence assay
[4] = compound: CC[C@H](C)[C@H](NC(=O)[C@H](CC(C)C)NC(=O)[C@H](CCCNC(=N)N)NC(C)=O)C(=O)N[C@@H](CCCCNC(C)=O)C(=O)Nc1ccc2c(C)cc(=O)oc2c1; assay: as §2
[5] = compound: CC(=O)NCCCC[C@H](NC(=O)[C@H](CC(C)C)NC(=O)[C@H](CCCCN)NC(=O)[C@H](Cc1ccc(O)cc1)NC(C)=O)C(=O)Nc1ccc2c(C)cc(=O)oc2c1; assay: (§3) Substrate activity at human N-terminal His-tagged SIRT3 (122 to 391 residues) expressed in Escherichia coli assessed as Vmax measured after 1 hr in presence of NAD+ and trypsin by Michaelis-Menten kinetic model based fluorescence assay
[6] = compound: CC[C@H](C)[C@H](NC(=O)[C@H](CC(C)C)NC(=O)[C@H](CCCNC(=N)N)NC(C)=O)C(=O)N[C@@H](CCCCNC(C)=O)C(=O)Nc1ccc2c(C)cc(=O)oc2c1; assay: as §3
[7] = compound: CC(=O)NCCCC[C@H](NC(=O)[C@H](CC(C)C)NC(=O)[C@H](CCCCN)NC(=O)[C@H](Cc1ccc(O)cc1)NC(C)=O)C(=O)Nc1ccc2c(C)cc(=O)oc2c1; assay: (§4) Substrate activity at human N-terminal His-tagged SIRT3 (122 to 391 residues) expressed in Escherichia coli assessed as Kcat measured after 1 hr in presence of NAD+ and trypsin by Michaelis-Menten kinetic model based fluorescence assay
[8] = compound: CC[C@H](C)[C@H](NC(=O)[C@H](CC(C)C)NC(=O)[C@H](CCCNC(=N)N)NC(C)=O)C(=O)N[C@@H](CCCCNC(C)=O)C(=O)Nc1ccc2c(C)cc(=O)oc2c1; assay: as §4

B1: NAD-dependent protein deacetylase sirtuin-3, mitochondrial (Homo sapiens), Q9NTG7 (protein)
chain: MAFWGWRAAAALRLWGRVVERVEAGGGVGPFQACGCRLVLGGRDDVSAGLRGSHGARGEPLDPARPLQRPPRPEVPRAFRRQPRAAAPSFFFSSIKGGRRSISFSVGASSVVGSGGSSDKGKLSLQDVAELIRARACQRVVVMVGAGISTPSGIPDFRSPGSGLYSNLQQYDLPYPEAIFELPFFFHNPKPFFTLAKELYPGNYKPNVTHYFLRLLHDKGLLLRLYTQNIDGLERVSGIPASKLVEAHGTFASATCTVCQRPFPGEDIRADVMADRVPRCPVCTGVVKPDIVFFGEPLPQRFLLHVVDFPMADLLLILGTSLEVEPFASLTEAVRSSVPRLLINRDLVGPLAWHPRSRDVAQLGDVVHGVESLVELLGWTEEMRDLVQRETGKLDGPDK
- Km [1]: 63.4 µM
- Km [2]: 6.52 µM
- kcat/Km [3]: 26.1 M⁻¹ s⁻¹
- kcat/Km [4]: 850 M⁻¹ s⁻¹
- Vmax [5]: 14.6 nM/min
- Vmax [6]: 33.5 nM/min
- kcat [7]: 2.44 10^-3/s
- kcat [8]: 5.58 10^-3/s
